This is an account of results in patent publication US20160145334A1 (AbbVie / Abbott, published 2016).

The target of assay [1] is T1, rat NgR, full length, on cells (rat, UniProt Q99M75 27-447).
T1 construct: whole, on cells; also called CHO K1 Rat NGR; rat NgR expressed on HEK293f cells
T1 sequence (looked up): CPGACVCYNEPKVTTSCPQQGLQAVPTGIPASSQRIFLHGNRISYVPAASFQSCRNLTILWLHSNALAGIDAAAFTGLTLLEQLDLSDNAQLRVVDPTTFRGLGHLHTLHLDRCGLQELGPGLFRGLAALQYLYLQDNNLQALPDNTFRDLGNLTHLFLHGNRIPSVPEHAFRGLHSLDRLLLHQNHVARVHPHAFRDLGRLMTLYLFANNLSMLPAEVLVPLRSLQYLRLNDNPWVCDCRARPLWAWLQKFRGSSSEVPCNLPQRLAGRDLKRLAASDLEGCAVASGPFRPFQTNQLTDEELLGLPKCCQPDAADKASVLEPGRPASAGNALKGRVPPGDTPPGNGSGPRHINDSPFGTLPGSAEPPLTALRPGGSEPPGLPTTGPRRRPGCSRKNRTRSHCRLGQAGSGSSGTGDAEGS
Briefly: FACS on HEK293f cells with rat NgR, AP-Nogo66 40 nM, Alexa Fluor-labelled anti-alkaline phosphatase antibody. As for the experimental part:
(§1) To further characterize the binding and competitive properties of mAbs produced as described in Example 1, a suspension of HEK293f cells transiently expressing human or rat NgR was used. 48 h after transfection the cells were plated in 96-well microtiter plates (Nunc Maxisorb) and washed with Phosphate buffered saline buffer (PBS containing 1% BSA). 1 μg/200 μl of AP-Nogo66 (final concentration 40 nM) and varying concentrations of monoclonal antibodies (20 μg, 4, 0.8 and 0.16 μg/200 μl) were added and incubated for 1 h at 4° C. A monoclonal antibody with the same isotype was used as a negative control. The binding of AP-Nogo66 was detected with an anti-alkaline Phosphatase antibody (Sigma), which was labeled with Alexa Fluor using the Zenon mouse IgG2a labeling kit (Invitrogen). The secondary antibody was incubated for 1 h at 4° C. At the end of the incubation, the cells were washed with PBS and subjected to FACS analysis. At the 20 μg/200 μl concentration (20 fold molar excess) polyclonal anti-NgR antibody and the NgR-Fc (both from R&D Systems) blocked the AP-Nogo66 binding between 60% and 70%, while mAb 50 and 51 blocked the AP-Nogo66 binding by approximately 90%. […] The AP-Nogo66 fluorescence is shifted to lower intensities (shaded; green area) in the presence of both antibodies in HEK293f cells expressing human and rat NgR.

Assay [2] deals with T2, human NgR, full length, on cells (human, UniProt Q9BZR6 27-447).
T2 construct: whole, on cells; also called HEK293 NGR; human NgR expressed on HEK293f cells
T2 sequence (looked up): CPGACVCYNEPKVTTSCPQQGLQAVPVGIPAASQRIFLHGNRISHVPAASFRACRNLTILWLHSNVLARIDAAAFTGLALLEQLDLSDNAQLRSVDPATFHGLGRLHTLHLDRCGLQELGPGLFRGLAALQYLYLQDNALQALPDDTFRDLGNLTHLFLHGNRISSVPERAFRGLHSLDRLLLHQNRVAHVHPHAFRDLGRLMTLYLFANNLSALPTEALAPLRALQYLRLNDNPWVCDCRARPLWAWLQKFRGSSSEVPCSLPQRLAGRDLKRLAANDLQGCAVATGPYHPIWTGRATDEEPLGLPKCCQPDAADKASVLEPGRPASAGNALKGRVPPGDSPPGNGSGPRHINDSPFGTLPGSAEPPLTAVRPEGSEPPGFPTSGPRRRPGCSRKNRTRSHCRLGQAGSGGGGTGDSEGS
In words: FACS on HEK293f cells with human NgR, AP-Nogo66 40 nM, Alexa Fluor-labelled anti-alkaline phosphatase antibody. How it is done:
as §1

Assay [3] addresses T3, recombinant Rat MAG/Fc Chimera (R&D Systems, Catalog #538-MG) (rat, UniProt P07722 20-516).
T3 construct: Bought; labeled with horseradish peroxidase by the Zenon human IgG labeling kit in the assay; Fc part of the bought chimera not given; not described
T3 sequence (looked up): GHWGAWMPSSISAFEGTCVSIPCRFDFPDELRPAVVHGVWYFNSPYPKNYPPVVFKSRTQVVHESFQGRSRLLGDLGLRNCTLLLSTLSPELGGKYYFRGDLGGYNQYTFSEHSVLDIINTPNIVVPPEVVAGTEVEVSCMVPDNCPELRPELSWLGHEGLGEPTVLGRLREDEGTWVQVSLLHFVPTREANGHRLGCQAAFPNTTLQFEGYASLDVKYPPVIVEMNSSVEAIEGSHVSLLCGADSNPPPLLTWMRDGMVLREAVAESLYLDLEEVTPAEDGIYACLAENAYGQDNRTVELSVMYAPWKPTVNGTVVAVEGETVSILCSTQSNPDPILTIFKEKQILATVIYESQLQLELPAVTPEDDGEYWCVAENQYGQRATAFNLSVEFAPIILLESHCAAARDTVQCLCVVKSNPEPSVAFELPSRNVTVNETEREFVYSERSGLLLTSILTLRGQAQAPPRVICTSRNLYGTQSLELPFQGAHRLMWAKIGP
In words: competition ELISA, human NgR-Fc coated 0.2 µg/well, HRP-labelled MAG-Fc at 50 ng/ml, competitor unlabelled MAG-Fc. As for the experimental part: To further characterize the monoclonal antibodies a competition assay similar to the binding assay of Example 2 was used to test the ability of two mAbs produced in Example 1 to inhibit MAG-Fc binding to human NgR-Fc. We immobilized NgR-Fc (0.2 μg/well, R&D Systems) on 96-well microtiter plates (Nunc Maxisorb) in 50 mM Na-carbonate buffer pH 9 over night at 4° C. followed by a 2 h blocking step with 2% BSA in Tris-HCL, pH 7.2 at room temperature. MAG-Fc (R&D Systems recombinant Rat MAG/Fc Chimera, Catalog #538-MG) was labeled with horseradish peroxidase by the Zenon human IgG labeling kit (Molecular Probes). The wells received a constant concentration of labeled MAG-Fc (final concentration 50 ng/ml in Tris-HCL, pH 7.2 with 0.1% BSA) and the indicated concentrations of mAb 50 and mAb 51. This was incubated for 60 min at room temperature and using unlabeled MAG-Fc and NgR-Fc as controls. During each incubation step plates were washed with washing buffer (10 mM Tris-HCl, pH 7.2 and 0.05% Tween 20). Labeled MAG-Fc was developed using 3,3′,5,5′-tetramethylbenzidine substrate (TMB, Pierce) under standard conditions. […] MAG-Fc and NgR-Fc competed for the binding of labeled MAG-Fc (closed circles) to human NgR-Fc (a fusion protein comprising amino acids Met 1 to Ser 447 of the human NgR and a human Fc fragment (R&D Systems); closed squares). […]

B1: AP-Nogo66 (ligand)
chain: DAAQPARRARRTYEAYVRSSGIIPVEEENPDFWNREAAEALGAAKKLQPAQTAAKNLIIFLGDGMGVSTVTAARILKGQKKDKLGPEIPLAMDRFPYVALSKTYNVDKHVPDSGATATAYLCGVKGNFQTIGLSAAARFNQCNTTRGNEVISVMNRAKKAGKSVGVVTTTRVQHASPAGTYAHTVNRNWYSDADVPASARQEGCQDIATQLISNMDIDVILGGGRKYMFRMGTPDPEYPDDYSQGGTRLDGKNLVQEWLAKRQGARYVWNRTELMQASLDPSVTHLMGLFEPGDMKYEIHRDSTLDPSLMEMTEAALRLLSRNPRGFFLFVEGGRIDHGHHESRAYRALTETIMFDDAIERAGQLTSEEDTLSLVTADHSHVFSFGGYPLRGSSIFGLAPGKARDRKAYTVLLYGNGPGYVLKDGARPDVTESESGSPEYRQQSAVPLDEETHAGEDVAVFARGPQAHLVHGVQEQTFIAHVMAFAACLEPYTACDLAPPAGTTDAAHPGYLEEALSLERIYKGVIQAIQKSDEGHPFRAYLESEVAISEELVQKYSNSALGHVNCTIKELRRLFLVDDLVDSLKSLEGPEQKLISEEDLNSAVDHHHHHH
notes: Nogo66 cloned into pAPTag5, made in HEK293 cells; also called Nogo66 fused to an alkaline phosphatase tag
Turning to B1, the binding result in assay [1] and in assay [2] was “binds” each time.

B2: human recombinant NgR/Fc chimera (R&D Systems, Cat. Number 1208-NG) (Fc fusion, UniProt Q9BZR6 27-447, looked up)
chain: T2 sequence (looked up)
notes: range 1-447; Bought from R&D Systems; also called hNgR-Fc; human NgR-Fc; not shown: human Fc fragment
As to B2, in assay [3], the binding result is listed as “binds”.
